# Results reported in patent US20130336893A1 (Sanofi, published 2013).
# *1 amine or outer side, *2 acyl side, *3 side chain or, on linkers, in order; H or OH if unused. Where no end group is shown, it is not given here. Side-chain parts run from the residue outwards. [ ]: non-standard residue; d: D form. The star is where a group is joined. γGlu = O=C(O)[C@H](CCC(=O)[*:2])N[*:1]; Stearoyl = CCCCCCCCCCCCCCCCCC(=O)*; Palmitoyl = CCCCCCCCCCCCCCCC(=O)*; Orn = NCCC[C@H](N)C(=O)O; Dab = NCC[C@H](N)C(=O)O; Dap = NC[C@H](N)C(=O)O; Aib = CC(C)(N)C(=O)O
# What was measured:
# [1] = molecular target: human GLP-1 receptor (human, UniProt P43220 24-463); experiment: cell-based or functional assay
# [2] = molecular target: human glucagon receptor (human, UniProt P47871 26-477); experiment: cell-based or functional assay
# Chain of human glucagon receptor (P47871 26-477): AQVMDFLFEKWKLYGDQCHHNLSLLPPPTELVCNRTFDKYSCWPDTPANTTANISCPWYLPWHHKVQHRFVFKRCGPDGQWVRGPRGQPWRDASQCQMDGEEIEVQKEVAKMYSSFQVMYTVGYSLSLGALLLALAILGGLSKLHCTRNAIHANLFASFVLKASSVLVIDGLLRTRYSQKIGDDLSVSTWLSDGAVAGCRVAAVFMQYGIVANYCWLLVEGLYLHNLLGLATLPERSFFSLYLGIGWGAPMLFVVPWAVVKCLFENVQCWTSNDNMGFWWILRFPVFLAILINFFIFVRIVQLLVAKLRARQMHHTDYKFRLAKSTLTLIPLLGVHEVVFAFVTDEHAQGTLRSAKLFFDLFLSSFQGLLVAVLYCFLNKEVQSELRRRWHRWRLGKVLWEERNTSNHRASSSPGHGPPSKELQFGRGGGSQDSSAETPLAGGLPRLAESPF
binder,measurement,setting,value
H[dS]QGTFTSDLSKQMESRRAQDFIEWLKSGGPSSGAPPPS[Orn]([γGlu-Palmitoyl])-NH2 (N-terminus assumed; SMILES CCCCCCCCCCCCCCCC(=O)N[C@@H](CCC(=O)NCCC[C@H](NC(=O)[C@H](CO)NC(=O)[C@@H]1CCCN1C(=O)[C@@H]1CCCN1C(=O)[C@@H]1CCCN1C(=O)[C@H](C)NC(=O)CNC(=O)[C@H](CO)NC(=O)[C@H](CO)NC(=O)[C@@H]1CCCN1C(=O)CNC(=O)CNC(=O)[C@H](CO)NC(=O)[C@H](CCCCN)NC(=O)[C@H](CC(C)C)NC(=O)[C@H](Cc1c[nH]c2ccccc12)NC(=O)[C@H](CCC(=O)O)NC(=O)[C@@H](NC(=O)[C@H](Cc1ccccc1)NC(=O)[C@H](CC(=O)O)NC(=O)[C@H](CCC(N)=O)NC(=O)[C@H](C)NC(=O)[C@H](CCCNC(=N)N)NC(=O)[C@H](CCCNC(=N)N)NC(=O)[C@H](CO)NC(=O)[C@H](CCC(=O)O)NC(=O)[C@H](CCSC)NC(=O)[C@H](CCC(N)=O)NC(=O)[C@H](CCCCN)NC(=O)[C@H](CO)NC(=O)[C@H](CC(C)C)NC(=O)[C@H](CC(=O)O)NC(=O)[C@H](CO)NC(=O)[C@@H](NC(=O)[C@H](Cc1ccccc1)NC(=O)[C@@H](NC(=O)CNC(=O)[C@H](CCC(N)=O)NC(=O)[C@@H](CO)NC(=O)[C@@H](N)Cc1c[nH]cn1)[C@@H](C)O)[C@@H](C)O)[C@@H](C)CC)C(N)=O)C(=O)O) [SEQ ID NO: (88)],EC50 hGLP-1R (cAMP formation),[1],5.1 pM
same,EC50 hGlucagonR (cAMP formation),[2],18.2 pM
H[dS]QGTFTSDLSKQMESRRAQDFIEWLKSGGPSSGAPPPSK([γGlu-Stearoyl])-NH2 [SEQ ID NO: (84)],EC50 hGLP-1R (cAMP formation),[1],3.9 pM
same,EC50 hGlucagonR (cAMP formation),[2],13.8 pM
H[dS]QGTFTSDLSKQMESRRAQDFIEWLKSGGPSSGAPPPSK([γGlu-Palmitoyl])-NH2 (N-terminus assumed; SMILES CCCCCCCCCCCCCCCC(=O)N[C@@H](CCC(=O)NCCCC[C@H](NC(=O)[C@H](CO)NC(=O)[C@@H]1CCCN1C(=O)[C@@H]1CCCN1C(=O)[C@@H]1CCCN1C(=O)[C@H](C)NC(=O)CNC(=O)[C@H](CO)NC(=O)[C@H](CO)NC(=O)[C@@H]1CCCN1C(=O)CNC(=O)CNC(=O)[C@H](CO)NC(=O)[C@H](CCCCN)NC(=O)[C@H](CC(C)C)NC(=O)[C@H](Cc1c[nH]c2ccccc12)NC(=O)[C@H](CCC(=O)O)NC(=O)[C@@H](NC(=O)[C@H](Cc1ccccc1)NC(=O)[C@H](CC(=O)O)NC(=O)[C@H](CCC(N)=O)NC(=O)[C@H](C)NC(=O)[C@H](CCCNC(=N)N)NC(=O)[C@H](CCCNC(=N)N)NC(=O)[C@H](CO)NC(=O)[C@H](CCC(=O)O)NC(=O)[C@H](CCSC)NC(=O)[C@H](CCC(N)=O)NC(=O)[C@H](CCCCN)NC(=O)[C@H](CO)NC(=O)[C@H](CC(C)C)NC(=O)[C@H](CC(=O)O)NC(=O)[C@H](CO)NC(=O)[C@@H](NC(=O)[C@H](Cc1ccccc1)NC(=O)[C@@H](NC(=O)CNC(=O)[C@H](CCC(N)=O)NC(=O)[C@@H](CO)NC(=O)[C@@H](N)Cc1c[nH]cn1)[C@@H](C)O)[C@@H](C)O)[C@@H](C)CC)C(N)=O)C(=O)O) [SEQ ID NO: (78)],EC50 hGLP-1R (cAMP formation),[1],4.2 pM
same,EC50 hGlucagonR (cAMP formation),[2],18.1 pM
H[dS]QGTFTSDLSKQMESRRAQDFIEWLKSGGPSSGAPPPS[Dab]([γGlu-Palmitoyl])-NH2 [SEQ ID NO: (89)],EC50 hGLP-1R (cAMP formation),[1],5.9 pM
same,EC50 hGlucagonR (cAMP formation),[2],19.8 pM
HSQGTFTSDLSKQMDERRAQDFIEWLKNGGPSSGAPPPS-NH2 [SEQ ID NO: (5)],EC50 hGLP-1R (cAMP formation),[1],16.6 pM
same,EC50 hGlucagonR (cAMP formation),[2],67 pM
Ac-H[dS]QGTFTSDLSKQMESRRAQDFIEWLKSGGPSSGAPPPSK([γGlu-Palmitoyl])-NH2 [SEQ ID NO: (83)],EC50 hGLP-1R (cAMP formation),[1],369 pM
same,EC50 hGlucagonR (cAMP formation),[2],375 pM
H[dS]QGTFTSDLSKQMESRRAQDFIEWLKSGGPSSGAPPPS[Dap]([γGlu-Palmitoyl])-NH2 (N-terminus assumed; SMILES CCCCCCCCCCCCCCCC(=O)N[C@@H](CCC(=O)NC[C@H](NC(=O)[C@H](CO)NC(=O)[C@@H]1CCCN1C(=O)[C@@H]1CCCN1C(=O)[C@@H]1CCCN1C(=O)[C@H](C)NC(=O)CNC(=O)[C@H](CO)NC(=O)[C@H](CO)NC(=O)[C@@H]1CCCN1C(=O)CNC(=O)CNC(=O)[C@H](CO)NC(=O)[C@H](CCCCN)NC(=O)[C@H](CC(C)C)NC(=O)[C@H](Cc1c[nH]c2ccccc12)NC(=O)[C@H](CCC(=O)O)NC(=O)[C@@H](NC(=O)[C@H](Cc1ccccc1)NC(=O)[C@H](CC(=O)O)NC(=O)[C@H](CCC(N)=O)NC(=O)[C@H](C)NC(=O)[C@H](CCCNC(=N)N)NC(=O)[C@H](CCCNC(=N)N)NC(=O)[C@H](CO)NC(=O)[C@H](CCC(=O)O)NC(=O)[C@H](CCSC)NC(=O)[C@H](CCC(N)=O)NC(=O)[C@H](CCCCN)NC(=O)[C@H](CO)NC(=O)[C@H](CC(C)C)NC(=O)[C@H](CC(=O)O)NC(=O)[C@H](CO)NC(=O)[C@@H](NC(=O)[C@H](Cc1ccccc1)NC(=O)[C@@H](NC(=O)CNC(=O)[C@H](CCC(N)=O)NC(=O)[C@@H](CO)NC(=O)[C@@H](N)Cc1c[nH]cn1)[C@@H](C)O)[C@@H](C)O)[C@@H](C)CC)C(N)=O)C(=O)O) [SEQ ID NO: (90)],EC50 hGLP-1R (cAMP formation),[1],4.9 pM
same,EC50 hGlucagonR (cAMP formation),[2],33.6 pM
GH[dS]QGTFTSDLSKQMESRRAQDFIEWLKSGGPSSGAPPPSK([γGlu-Palmitoyl])-NH2 [SEQ ID NO: (82)],EC50 hGLP-1R (cAMP formation),[1],2590 pM
same,EC50 hGlucagonR (cAMP formation),[2],5520 pM
H[dS]QGTFTSDLSKQMESRAAQLFIEWLKAGGPSSGAPPPSK([γGlu-Palmitoyl])-NH2 (N-terminus assumed; SMILES CCCCCCCCCCCCCCCC(=O)N[C@@H](CCC(=O)NCCCC[C@H](NC(=O)[C@H](CO)NC(=O)[C@@H]1CCCN1C(=O)[C@@H]1CCCN1C(=O)[C@@H]1CCCN1C(=O)[C@H](C)NC(=O)CNC(=O)[C@H](CO)NC(=O)[C@H](CO)NC(=O)[C@@H]1CCCN1C(=O)CNC(=O)CNC(=O)[C@H](C)NC(=O)[C@H](CCCCN)NC(=O)[C@H](CC(C)C)NC(=O)[C@H](Cc1c[nH]c2ccccc12)NC(=O)[C@H](CCC(=O)O)NC(=O)[C@@H](NC(=O)[C@H](Cc1ccccc1)NC(=O)[C@H](CC(C)C)NC(=O)[C@H](CCC(N)=O)NC(=O)[C@H](C)NC(=O)[C@H](C)NC(=O)[C@H](CCCNC(=N)N)NC(=O)[C@H](CO)NC(=O)[C@H](CCC(=O)O)NC(=O)[C@H](CCSC)NC(=O)[C@H](CCC(N)=O)NC(=O)[C@H](CCCCN)NC(=O)[C@H](CO)NC(=O)[C@H](CC(C)C)NC(=O)[C@H](CC(=O)O)NC(=O)[C@H](CO)NC(=O)[C@@H](NC(=O)[C@H](Cc1ccccc1)NC(=O)[C@@H](NC(=O)CNC(=O)[C@H](CCC(N)=O)NC(=O)[C@@H](CO)NC(=O)[C@@H](N)Cc1c[nH]cn1)[C@@H](C)O)[C@@H](C)O)[C@@H](C)CC)C(N)=O)C(=O)O) [SEQ ID NO: (79)],EC50 hGLP-1R (cAMP formation),[1],3.7 pM
same,EC50 hGlucagonR (cAMP formation),[2],195 pM
H[dS]QGTFTSDLSKQMESRRAQDFIEWLKSGGPSSGAPPPSK([γGlu-tocopheryl‑succinyl])-NH2 [SEQ ID NO: (86)],EC50 hGLP-1R (cAMP formation),[1],28.1 pM
same,EC50 hGlucagonR (cAMP formation),[2],21.8 pM
H[dS]QGTFTSDLSKQMESRRAQDFIEWLK[Aib]GGPSSGAPPPK(Palmitoyl)-NH2 [SEQ ID NO: (81)],EC50 hGLP-1R (cAMP formation),[1],19.7 pM
same,EC50 hGlucagonR (cAMP formation),[2],29.3 pM
H[dS]QGTFTSDLSKQMESRRAQDFIEWLK[Aib]GGPSSGAPPPK([γGlu-Palmitoyl])-NH2 (N-terminus assumed; SMILES CCCCCCCCCCCCCCCC(=O)N[C@@H](CCC(=O)NCCCC[C@H](NC(=O)[C@@H]1CCCN1C(=O)[C@@H]1CCCN1C(=O)[C@@H]1CCCN1C(=O)[C@H](C)NC(=O)CNC(=O)[C@H](CO)NC(=O)[C@H](CO)NC(=O)[C@@H]1CCCN1C(=O)CNC(=O)CNC(=O)C(C)(C)NC(=O)[C@H](CCCCN)NC(=O)[C@H](CC(C)C)NC(=O)[C@H](Cc1c[nH]c2ccccc12)NC(=O)[C@H](CCC(=O)O)NC(=O)[C@@H](NC(=O)[C@H](Cc1ccccc1)NC(=O)[C@H](CC(=O)O)NC(=O)[C@H](CCC(N)=O)NC(=O)[C@H](C)NC(=O)[C@H](CCCNC(=N)N)NC(=O)[C@H](CCCNC(=N)N)NC(=O)[C@H](CO)NC(=O)[C@H](CCC(=O)O)NC(=O)[C@H](CCSC)NC(=O)[C@H](CCC(N)=O)NC(=O)[C@H](CCCCN)NC(=O)[C@H](CO)NC(=O)[C@H](CC(C)C)NC(=O)[C@H](CC(=O)O)NC(=O)[C@H](CO)NC(=O)[C@@H](NC(=O)[C@H](Cc1ccccc1)NC(=O)[C@@H](NC(=O)CNC(=O)[C@H](CCC(N)=O)NC(=O)[C@@H](CO)NC(=O)[C@@H](N)Cc1c[nH]cn1)[C@@H](C)O)[C@@H](C)O)[C@@H](C)CC)C(N)=O)C(=O)O) [SEQ ID NO: (80)],EC50 hGLP-1R (cAMP formation),[1],10.8 pM
same,EC50 hGlucagonR (cAMP formation),[2],38.1 pM
HSQGTFTSDLSKQMEERRAQDFIEWLKNGGPSSGAPPPS-NH2 [SEQ ID NO: (15)],EC50 hGLP-1R (cAMP formation),[1],35.2 pM
same,EC50 hGlucagonR (cAMP formation),[2],538 pM
H[dS]QGTFTSDLSKQMESRRAQDFIEWLKSGGPSSGAPPPSK(Stearoyl)-NH2 [SEQ ID NO: (85)],EC50 hGLP-1R (cAMP formation),[1],6.4 pM
same,EC50 hGlucagonR (cAMP formation),[2],9 pM
